Data: patent publication US20230279126A1 (published 2023)

T1: extracellular domain of mouse IL12RB1 (mIL12Rb1 ECD) (mouse, UniProt Q60837 20-565)
T1 construct: The immunogen was a fusion of the ECD with the human IgG1 hinge and Fc; also called mIL12Rb1 ECD antigen
T1 sequence: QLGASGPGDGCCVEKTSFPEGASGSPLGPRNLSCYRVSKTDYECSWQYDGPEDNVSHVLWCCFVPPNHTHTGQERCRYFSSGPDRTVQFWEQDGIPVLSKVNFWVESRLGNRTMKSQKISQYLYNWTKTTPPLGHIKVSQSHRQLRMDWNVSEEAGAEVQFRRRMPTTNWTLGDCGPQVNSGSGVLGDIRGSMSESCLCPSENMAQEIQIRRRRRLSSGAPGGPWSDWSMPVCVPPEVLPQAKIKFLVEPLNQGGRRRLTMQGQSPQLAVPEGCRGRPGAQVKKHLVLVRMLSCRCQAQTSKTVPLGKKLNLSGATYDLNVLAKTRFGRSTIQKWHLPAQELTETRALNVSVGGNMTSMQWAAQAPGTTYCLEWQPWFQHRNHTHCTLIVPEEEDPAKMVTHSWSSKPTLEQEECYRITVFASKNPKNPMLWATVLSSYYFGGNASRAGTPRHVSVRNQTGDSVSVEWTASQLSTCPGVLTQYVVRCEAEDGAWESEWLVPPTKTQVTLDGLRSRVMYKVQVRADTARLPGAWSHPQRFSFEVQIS


Target: T2, extracellular domain of human IL12RB1 (hIL12Rb1 ECD) (human, UniProt P42701 24-545)
T2 construct: The immunogen was a fusion of the ECD with the human IgG1 hinge and Fc; also called IL12Rβ1; CD212
Assay: periplasmic extract ELISA (PE-ELISA) of phage clones, colorimetric
How it was run: (§1)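 VHH domains came from camels immunized in sequence with human and mouse receptor extracellular domain–human IgG1 hinge–Fc fusion proteins. Blood RNA was transcribed, and the approximately 400 bp VHH fragment was cloned in frame with a his-tag into a phagemid in E. coli. The phage library went through multiple rounds of biopanning on the human or mouse extracellular domain. Individual clones were tested by periplasmic extract ELISA in 96-well plates, with selective binding read colorimetrically.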

| Binder | binding result |
| --- | --- |
| hIL12Rb1_VHH10 (VHH, Phagemid clone with his-tag, periplasmic extract) VHH: QVQLQESGGGSVQAGGSLRLSCAVSGYDYCGYDVRWYRQAPGKEREFVSGIDSDGSTSYADSVKGRFTISQDNAENTSYLHMFSLKPEDTAMYYCKTESPAGESAWCRNFRGMDYWGKGTQVTVSS | binds |
| hIL12Rb1_VHH11 (VHH, Phagemid clone with his-tag, periplasmic extract) VHH: QVQLQESGGGSVQAGGSLRLSCAVSGYDYCGYDVRWYRQAPGKEREFVSGIDSDGSTSYADSVKGRFTISQDNAENTSYLHMFSLKPEDTAMYYCKTESPAGESAWCRNFRGMDYWGKGTQVTVSS | binds |
| hIL12Rb1_VHH15 (VHH, Phagemid clone with his-tag, periplasmic extract) VHH: QVQLQESGGGSVQAGGSLRLSCAVSGYDYCGYDVRWYRQAPGKEREFVSGINSDGSTSYADSVKGRFTISQDNAENTSYLHMFSLKPEDTAMYYCKTESPAGESAWCRNFRGMDYWGKGTQVTVSS | binds |
| hIL12Rb1_VHH19 (VHH, Phagemid clone with his-tag, periplasmic extract) VHH: QVQLQESGGGSVQAGGSLRLSCAVSGYDYCGYDVRWYRQAPGKEREFVSGINSDGSTSYADSVKGRFTISQDNAENTSYLHMFSLKPEDTAMYYCKTEGPAGESAWCRNFRGMDYWGKGTQVTVSS | binds |
| hIL12Rb1_VHH14 (VHH, Phagemid clone with his-tag, periplasmic extract) VHH: QVQLQESGGGSVQAGGSLRLSCAVSGYDYCGYDVRWYRRAPGKEREFVSGIDSDGSTSYADSVKGRFTISQDNAENTSYLHMFSLKPEDTAMYYCKTESPAGESAWCRNFRGMDYWGKGTQVTVSS | binds |
| hIL12Rb1_VHH7 (VHH, Phagemid clone with his-tag, periplasmic extract) VHH: QVQLQESGGGSVQAGGSLRLSCAVSGYDYCGYDVRWYRRAPGKEREFVSGIDSDGSTSYADSVKGRFTISQDNAENTSYLHMFSLKPEDTAMYYCKTESPAGESAWCRNFRGMDYWGKGTQVTVSS | binds |
| hIL12Rb1_VHH3 (VHH, Phagemid clone with his-tag, periplasmic extract) VHH: QVQLQESGGGSVQAGGSLRLSCVASGYSYCGYDMMWYRQAPGKEREFVALITSDYSIRYEDSVEGRFSISRDNAKNTGYLLMSNLTPADTAIYYCKTSTAARESSWCRSRYRVASWGQGTQVTVSS | binds |
| hIL12Rb1_VHH8 (VHH, Phagemid clone with his-tag, periplasmic extract) VHH: QVQLQESGGGSVQAGGSLRLSCVASGYSYCGYDMMWYRQAPGKEREFVALITSDYSIRYEDSVEGRFSISRDNAKNTGYLLMSNLTPADTAIYYCKTSTAARESSWCRSRYRVASWGQGTQVTVSS | binds |
| hIL12Rb1_VHH9 (VHH, Phagemid clone with his-tag, periplasmic extract) VHH: QVQLQESGGGSVQAGGSLRLSCVASGYSYCGYDMMWYRQAPGKEREFVALITSDYSIRYEDSVEGRFSISRDNAKNTGYLLMSNLTPADTAIYYCKTSTAARESGWCRSRYRVASWGQGTQVTVSS | binds |
| hIL12Rb1_VHH6 (VHH, Phagemid clone with his-tag, periplasmic extract) VHH: QVQLQESGGGSVQAGGSLRLSCAASRYTYTNNFMAWFRQAPGKEREGVAAIYTGDGYAYYFYSVKGRFTISQDNDENMLYLQMNSLKPEDTAMYYCAAMERRIGTRRMTENAEYKYWGQGTQVTVSS | binds |
| hIL12Rb1_VHH18 (VHH, Phagemid clone with his-tag, periplasmic extract) VHH: QVQLQESGGGSVQAGGSLRLSCAASRYTYTNNFMAWFRQAPGKEREGVAAIYTGDGYAYYFDSVKGRFTISQDNDKNMLYLQMNSLKPEDTAMYYCAAMERRSGRRRMTENAEYKYWGQGTQVTVSS | binds |
| hIL12Rb1_VHH17 (VHH, Phagemid clone with his-tag, periplasmic extract) VHH: QVQLQESGGGSVQAGGFLRLSCVASGYGYCGYDMSWYRQVPGKEREFVALITSDRSVSYEDSVKGRFSISRDNAKNTAYLEMNRLTPDDTAIYYCKTSTAARENNWCRSRYRIASWGQGTQVTVSS | binds |
| hIL12Rb1_VHH4 (VHH, Phagemid clone with his-tag, periplasmic extract) VHH: QVQLQESGGGSVQAGGSLRLSCVASGYGYCGYDMSWYRQTPGKEREFVALITSDRIASYEDSVKGRFIISRDNAKNTGYLDMTRVTPDDTAIYYCKTSAAARENSWCRSRYRVASWGQGTQVTVSS | binds |
| hIL12Rb1_VHH13 (VHH, Phagemid clone with his-tag, periplasmic extract) VHH: QVQLQESGGGSVQAGGFLRLSCVASGYGYCGYDMSWYRQAPGKEREFVALITSERVISYEDSVKGRFSISRDNAENTGYLEMNRLTPDDTAIYYCKTSAAARESSWCRSRYRVASWGQGTQVTVSS | binds |
| hIL12Rb1_VHH5 (VHH, Phagemid clone with his-tag, periplasmic extract) VHH: QVQLQESGGGSVQAGGFLRLSCVASGYGYCGYDMSWYRQVPGKEREFVALITSDRSVSYEDSVKGRFSISRDNAKNTAYLEMNRLTPDDTAVYYCKTSTAARENNWCRSRYRIAYWGQGTQVTVSS | binds |
| hIL12Rb1_VHH22 (VHH, Phagemid clone with his-tag, periplasmic extract) VHH: QVQLQESGGGSVQAGGSLRLSCTASGYTYSSAFMAWFRQAPGKEREGVAAIYTRDGGTVYADSVKGRFTISQDNAKNTLYLQMNSLKAEDTAMYYCAAKIPQPGRASLLDSQTYDYWGQGTQVTVSS | binds |
| hIL12Rb1_VHH12 (VHH, Phagemid clone with his-tag, periplasmic extract) VHH: QVQLQESGGGSVQAGGSLRLSCTASGYTYSSAFMAWFRQAPGKEREGVAAIYTRDGGTVYADSVKGRFTISQDNAKNTLYLQMNSLKPEDTAMYYCAAKMPQPGRASLLDSQTYDYWGQGTQVTVSS | binds |
| hIL12Rb1_VHH21 (VHH, Phagemid clone with his-tag, periplasmic extract) VHH: QVQLQESGGGSVQAGGSLRLSCTASGYTYSSAFMAWFRQAPGKEREGVAAMYTRDGGTVYADSVKGRFTISQDNAKNTLYLQMNSLKTEDTAMYYCAAKIPQPGRASLLDSQTYDYWGQGTQVTVSS | binds |
| hIL12Rb1_VHH20 (VHH, Phagemid clone with his-tag, periplasmic extract) VHH: QVQLQESGGGSVQAGGSLRLSCTASGYTYSSAFMAWFRQAPGKEREGVAAIYTRDGSPVYADSLKGRFTISQDNAKNTLHLQMNSLKPEDTAMYYCAAKIPEPGRISLLDSQTYDYWGHGTQVTVSS | binds |
| hIL12Rb1_VHH2 (VHH, Phagemid clone with his-tag, periplasmic extract) VHH: QVQLQESGGGSVQAGGSLRLSCTASGYTYSSAFMAWFRQAPGKEREGVAAIYTRDGGTVYADSVKGRFTISQDNAKNILYLQMNSLKAEDTAMYYCAAKIPQPGRASLLDSQTYDYWGQGTQVTVSS | binds |
| hIL12Rb1_VHH16 (VHH, Phagemid clone with his-tag, periplasmic extract) VHH: QVQLQESGGGSVQAGGSLRLSCTASGYTYSSAFMAWFRQAPGKEREGVAAMYTRDGGTVYADSVKGRFTISQDNAKNTLYLQIHTLKAEDTAMYYCAAKIPQPGRASLLDSQTYDYWGQGTQVTVSS | binds |

Target: T1, extracellular domain of mouse IL12RB1 …
Assay: as above
How it was run: as §1

| Binder | binding result |
| --- | --- |
| mIL12Rb1_VHH2 (VHH, Phagemid clone with his-tag, periplasmic extract) VHH: QVQLQESGGGSVQAGGSLRLSCAVSGYDYCGYDVRWYRQAPGKEREFVSGIDSDGSTSYADSVKGRFTISQDNAENTSYLHMFSLKPEDTAMYYCKTESPAGESAWCRNFRGMDYWGKGTQVTVSS | binds |
| mIL12Rb1_VHH1 (VHH, Phagemid clone with his-tag, periplasmic extract) VHH: QVQLQESGGGSVQAGGSLRLSCTASGYTYSSAFMAWFRQAPGKEREGVAAIYTRDGGTVYADSVKGRFTISQDNAKNTLYLQMNSLKAEDTAMYYCAAKIPQPGRASLLDSQTYDYWGQGTQVTVSS | binds |
| mIL12Rb1_VHH23 (VHH, Phagemid clone with his-tag, periplasmic extract) VHH: QVQLQESGGGSVQAGGSLRLSCTASGYTYSSAFMAWFRQAPGKEREGVAAIYTRDGGTVYADSVKGRFTISQDNAKNTLYLQMNSLKPEDTAMYYCAAKMPQPGRASLLDSQTYDYWGQGTQVTVSS | binds |
| mIL12Rb1_VHH6 (VHH, Phagemid clone with his-tag, periplasmic extract) VHH: QVQLQESGGGSVQAGGSLRLSCTASGYTYSSAFMAWFRQAPGKEREGVAAIYTRDGSPVYADSLKGRFTISQDNAKNTLHLQMNSLKPEDTAMYYCAAKIPEPGRISLLDSQTYDYWGHGTQVTVSS | binds |
| mIL12Rb1_VHH17 (VHH, Phagemid clone with his-tag, periplasmic extract) VHH: QVQLQESGGGSVQAGGSLRLSCTASGYTYSSAFMAWFRQAPGKEREGVAAMYTRDGGTVYADSVKGRFTISQDNAKNTLYLQIHTLKAEDTAMYYCAAKIPQPGRASLLDSQTYDYWGQGTQVTVSS | binds |
| mIL12Rb1_VHH18 (VHH, Phagemid clone with his-tag, periplasmic extract) VHH: QVQLQESGGGSVQAGGSLRLSCTASGYTYSSAFMAWFRQAPGKEREGVAAMYTRDGGTVYADSVKGRFTISQDNAKNTLYLQMNSLKTEDTAMYYCAAKIPQPGRASLLDSQTYDYWGQGTQVTVSS | binds |
| mIL12Rb1_VHH22 (VHH, Phagemid clone with his-tag, periplasmic extract) VHH: QVQLQESGGGSVQAGGSLRLSCTASGYTYSSAFMAWFRQAPGKEREGVAAIYTRDGGTVYADSVKGRFTISQDNAKNILYLQMNSLKAEDTAMYYCAAKIPQPGRASLLDSQTYDYWGQGTQVTVSS | binds |
